# Measurements from paper PMC2767265 (Nature structural & molecular biology, 2008).
# Where two headings read alike, the source gives them in different places.
# T1: Ffh (E. coli SRP protein), wild type (E. coli, UniProt P0AGD7 1-453)
# T1 sequence (looked up): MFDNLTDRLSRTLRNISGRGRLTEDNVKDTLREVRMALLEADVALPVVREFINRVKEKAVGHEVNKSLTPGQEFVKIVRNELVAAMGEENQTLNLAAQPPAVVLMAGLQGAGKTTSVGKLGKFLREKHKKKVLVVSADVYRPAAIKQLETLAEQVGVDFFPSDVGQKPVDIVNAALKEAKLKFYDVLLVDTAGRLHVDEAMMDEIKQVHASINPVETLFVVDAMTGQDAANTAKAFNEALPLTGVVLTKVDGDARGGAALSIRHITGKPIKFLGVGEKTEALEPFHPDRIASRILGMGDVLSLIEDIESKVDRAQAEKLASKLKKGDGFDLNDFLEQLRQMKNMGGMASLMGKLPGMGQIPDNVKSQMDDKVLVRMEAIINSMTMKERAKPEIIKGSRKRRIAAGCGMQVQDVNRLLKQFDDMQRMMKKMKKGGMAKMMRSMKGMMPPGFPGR
# What was measured:
# Assay in all cases: other fluorescence titration
# [1] = molecular target: T1, Ffh (E. coli SRP protein), wild type
# [2] = molecular target: T1, Ffh (E. coli SRP protein), wild type; remark: listed apart in the source
# [3] = molecular target: T1, Ffh (E. coli SRP protein), wild type; remark: listed apart in the source
Binder,Kd [1],koff [1],kon [1],Kd [2],koff [2],kon [2],binding result [3]
"FtsY lacking the first 46 amino acids of the A domain (wild-type reference) (domain or fragment, E. coli, UniProt P10121 47-497, looked up) ASEQAVEEQPQAHTEAEAETFAADVVEVTEQVAESEKAQPEAEVVAQPEPVVEETPEPVAIEREELPLPEDVNAEAVSPEEWQAEAETVEIVEAAEEEAAKEEITDEELETALAAEAAEEAVMVVPPAEEEQPVEEIAQEQEKPTKEGFFARLKRSLLKTKENLGSGFISLFRGKKIDDDLFEELEEQLLIADVGVETTRKIITNLTEGASRKQLRDAEALYGLLKEEMGEILAKVDEPLNVEGKAPFVILMVGVNGVGKTTTIGKLARQFEQQGKSVMLAAGDTFRAAAVEQLQVWGQRNNIPVIAQHTGADSASVIFDAIQAAKARNIDVLIADTAGRLQNKSHLMEELKKIVRVMKKLDVEAPHEVMLTIDASTGQNAVSQAKLFHEAVGLTGITLTKLDGTAKGGVIFSVADQFGIPIRYIGVGERIEDLRPFKADDFIEALFARED",0.0827 ± 0.013 µM,8.6e-06 s⁻¹,104 M⁻¹ s⁻¹,0.0684 ± 0.0042 µM,0.00265 s⁻¹,38800 M⁻¹ s⁻¹,–
"FtsYΔN1 (FtsY residues 221-497, lacks the A domain and the first helix of the N domain) (domain or fragment, E. coli, UniProt P10121 221-497, looked up) KKIDDDLFEELEEQLLIADVGVETTRKIITNLTEGASRKQLRDAEALYGLLKEEMGEILAKVDEPLNVEGKAPFVILMVGVNGVGKTTTIGKLARQFEQQGKSVMLAAGDTFRAAAVEQLQVWGQRNNIPVIAQHTGADSASVIFDAIQAAKARNIDVLIADTAGRLQNKSHLMEELKKIVRVMKKLDVEAPHEVMLTIDASTGQNAVSQAKLFHEAVGLTGITLTKLDGTAKGGVIFSVADQFGIPIRYIGVGERIEDLRPFKADDFIEALFARED",0.00798 ± 0.0011 µM,5.47e-06 s⁻¹,685 M⁻¹ s⁻¹,0.0149 ± 0.0021 µM,0.000605 s⁻¹,40500 M⁻¹ s⁻¹,–
"FtsY204 (FtsY residues 204-497, includes helix N1) (domain or fragment, E. coli, UniProt P10121 204-497, looked up, for NMR: 13C on the methyl groups of isoleucine, leucine and valine) LKTKENLGSGFISLFRGKKIDDDLFEELEEQLLIADVGVETTRKIITNLTEGASRKQLRDAEALYGLLKEEMGEILAKVDEPLNVEGKAPFVILMVGVNGVGKTTTIGKLARQFEQQGKSVMLAAGDTFRAAAVEQLQVWGQRNNIPVIAQHTGADSASVIFDAIQAAKARNIDVLIADTAGRLQNKSHLMEELKKIVRVMKKLDVEAPHEVMLTIDASTGQNAVSQAKLFHEAVGLTGITLTKLDGTAKGGVIFSVADQFGIPIRYIGVGERIEDLRPFKADDFIEALFARED",–,–,–,–,–,–,binds
